Measured values from the supplement of paper PMC5998384.

What was measured:
HeLa Kyoto [1] = experiment: solubility in G1/S (NP-40 vs SDS abundance) (log2 ratio); higher = more soluble; settings: cell cycle stage: G1/S
HeLa Kyoto [2] = experiment: melting temperature (median over replicates), in situ; higher = more thermally stable
HeLa Kyoto [3] = experiment: solubility change mitosis vs G1/S (difference of NP-40 vs SDS log2 ratios) (log2 ratio difference); higher = more soluble in mitosis
HeLa Kyoto [4] = experiment: thermal stability score vs G1/S (z-score of summed log2 fold changes over temperatures); higher = more thermally stable than in G1/S
[5] = cell cycle stage: early G1 (4.5 h after nocodazole release)
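Throughout, for melting temperature (median over replicates), in situ: HeLa Kyoto cells synchronized by double thymidine or nocodazole block, proteins quantified by TMT10plex mass spectrometry, three independent biological replicates.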
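Throughout, for solubility change mitosis vs G1/S (difference of NP-40 vs SDS log2 ratios): synchronized HeLa Kyoto cells (double thymidine block for G1/S, nocodazole release for mitosis), protein amounts in NP-40 versus SDS lysates quantified by mass spectrometry, three biological replicates.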
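Throughout, for solubility in G1/S (NP-40 vs SDS abundance): HeLa Kyoto cells arrested at G1/S by double thymidine block, proteins quantified by TMT10plex mass spectrometry in mild NP-40 versus SDS extracts, three biological replicates.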
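Throughout, for thermal stability score vs G1/S (z-score of summed log2 fold changes over temperatures): synchronized HeLa Kyoto cells, proteins quantified by TMT10plex mass spectrometry, three biological replicates, mitosis taken 0.5 h after nocodazole release, G1/S directly after double thymidine block.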

Substance	solubility in G1/S (log2) (HeLa Kyoto [1])	melting temperature (HeLa Kyoto [2]; cell cycle stage: G1/S) [°C]	melting temperature (HeLa Kyoto [2]; cell cycle stage: mitosis) [°C]	solubility change mitosis (log2) (HeLa Kyoto [3])	thermal stability score (HeLa Kyoto [4]; [5])	thermal stability score (HeLa Kyoto [4]; cell cycle stage: mitosis)
MQRLLFPPLRALKGRQYLPLLAPRAAPRAQCDCIRRPLRPGQYSTISEVALQSGRGTVSLPSKAAERVVGRWLLVCSGTVAGAVILGGVTRLTESGLSMVDWHLIKEMKPPTSQEEWEAEFQRYQQFPEFKILNHDMTLTEFKFIWYMEYSHRMWGRLVGLVYILPAAYFWRKGWLSRGMKGRVLALCGLVCFQGLLGWYMVKSGLEEKSDSHDIPRVSQYRLAAHLGSALVLYCASLWTSLSLLLPPHKLPETHQLLQLRRFAHGTAGLVFLTALSGAFVAGLDAGLVYNSFPKMGESWIPEDLFTFSPILRNVFENPTMVQFDHRILGITSVTAITVLYFLSRRIPLPRRTKMAAVTLLALAYTQVGLGISTLLMYVPTPLAATHQSGSLALLTGALWLMNELRRVPK [COX15]	-0.208	56.5	57.9	-0.0819	-2.54	-1.54
MDRRSMGETESGDAFLDLKKPPASKCPHRYTKEELLDIKELPHSKQRPSCLSEKYDSDGVWDPEKWHASLYPASGRSSPVESLKKELDTDRPSLVRRIVDPRERVKEDDLDVVLSPQRRSFGGGCHVTAAVSSRRSGSPLEKDSDGLRLLGGRRIGSGRIISARTFEKDHRLSDKDLRDLRDRDRERDFKDKRFRREFGDSKRVFGERRRNDSYTEEEPEWFSAGPTSQSETIELTGFDDKILEEDHKGRKRTRRRTASVKEGIVECNGGVAEEDEVEVILAQEPAADQEVPRDAVLPEQSPGDFDFNEFFNLDKVPCLASMIEDVLGEGSVSASRFSRWFSNPSRSGSRSSSLGSTPHEELERLAGLEQAILSPGQNSGNYFAPIPLEDHAENKVDILEMLQKAKVDLKPLLSSLSANKEKLKESSHSGVVLSVEEVEAGLKGLKVDQQVKNSTPFMAEHLEETLSAVTNNRQLKKDGDMTAFNKLVSTMKASGTLPSQPKVSRNLESHLMSPAEIPGQPVPKNILQELLGQPVQRPASSNLLSGLMGSLEPTTSLLGQRAPSPPLSQVFQTRAASADYLRPRIPSPIGFTPGPQQLLGDPFQGMRKPMSPITAQMSQLELQQAALEGLALPHDLAVQAANFYQPGFGKPQVDRTRDGFRNRQQRVTKSPAPVHRGNSSSPAPAASITSMLSPSFTPTSVIRKMYESKEKSKEEPASGKAALGDSKEDTQKASEENLLSSSSVPSADRDSSPTTNSKLSALQRSSCSTPLSQANRYTKEQDYRPKATGRKTPTLASPVPTTPFLRPVHQVPLVPHVPMVRPAHQLHPGLVQRMLAQGVHPQHLPSLLQTGVLPPGMDLSHLQGISGPILGQPFYPLPAASHPLLNPRPGTPLHLAMVQQQLQRSVLHPPGSGSHAAAVSVQTTPQNVPSRSGLPHMHSQLEHRPSQRSSSPVGLAKWFGSDVLQQPLPSMPAKVISVDELEYRQ [EIF4ENIF1]	0.0256	50.3	49.3	0.0657	-0.104	0.531
MAARWRFWCVSVTMVVALLIVCDVPSASAQRKKEMVLSEKVSQLMEWTNKRPVIRMNGDKFRRLVKAPPRNYSVIVMFTALQLHRQCVVCKQADEEFQILANSWRYSSAFTNRIFFAMVDFDEGSDVFQMLNMNSAPTFINFPAKGKPKRGDTYELQVRGFSAEQIARWIADRTDVNIRVIRPPNYAGPLMLGLLLAVIGGLVYLRRSNMEFLFNKTGWAFAALCFVLAMTSGQMWNHIRGPPYAHKNPHTGHVNYIHGSSQAQFVAETHIVLLFNGGVTLGMVLLCEAATSDMDIGKRKIMCVAGIGLVVLFFSWMLSIFRSKYHGYPYSFLMS [MAGT1]	-0.189	53.9	53.3	-0.0398	2.09	2.05
MEPAMEPETLEARINRATNPLNKELDWASINGFCEQLNEDFEGPPLATRLLAHKIQSPQEWEAIQALTVLETCMKSCGKRFHDEVGKFRFLNELIKVVSPKYLGSRTSEKVKNKILELLYSWTVGLPEEVKIAEAYQMLKKQGIVKSDPKLPDDTTFPLPPPRPKNVIFEDEEKSKMLARLLKSSHPEDLRAANKLIKEMVQEDQKRMEKISKRVNAIEEVNNNVKLLTEMVMSHSQGGAAAGSSEDLMKELYQRCERMRPTLFRLASDTEDNDEALAEILQANDNLTQVINLYKQLVRGEEVNGDATAGSIPGSTSALLDLSGLDLPPAGTTYPAMPTRPGEQASPEQPSASVSLLDDELMSLGLSDPTPPSGPSLDGTGWNSFQSSDATEPPAPALAQAPSMESRPPAQTSLPASSGLDDLDLLGKTLLQQSLPPESQQVRWEKQQPTPRLTLRDLQNKSSSCSSPSSSATSLLHTVSPEPPRPPQQPVPTELSLASITVPLESIKPSNILPVTVYDQHGFRILFHFARDPLPGRSDVLVVVVSMLSTAPQPIRNIVFQSAVPKVMKVKLQPPSGTELPAFNPIVHPSAITQVLLLANPQKEKVRLRYKLTFTMGDQTYNEMGDVDQFPPPETWGSL [GGA1]	0.556	51.6	51.6	-0.28	-0.271	-0.0298
MAAPPEPGEPEERKSLKLLGFLDVENTPCARHSILYGSLGSVVAGFGHFLFTSRIRRSCDVGVGGFILVTLGCWFHCRYNYAKQRIQERIAREEIKKKILYEGTHLDPERKHNGSSSN [COX20]	0.0379	55.3	58	-0.0179	-0.338	-1.53
ITSN2	-0.159	51.9	49.1	-0.0144	0.178	0.129
MADYSTVPPPSSGSAGGGGGGGGGGGVNDAFKDALQRARQIAAKIGGDAGTSLNSNDYGYGGQKRPLEDGDQPDAKKVAPQNDSFGTQLPPMHQQQSRSVMTEEYKVPDGMVGFIIGRGGEQISRIQQESGCKIQIAPDSGGLPERSCMLTGTPESVQSAKRLLDQIVEKGRPAPGFHHGDGPGNAVQEIMIPASKAGLVIGKGGETIKQLQERAGVKMVMIQDGPQNTGADKPLRITGDPYKVQQAKEMVLELIRDQGGFREVRNEYGSRIGGNEGIDVPIPRFAVGIVIGRNGEMIKKIQNDAGVRIQFKPDDGTTPERIAQITGPPDRCQHAAEIITDLLRSVQAGNPGGPGPGGRGRGRGQGNWNMGPPGGLQEFNFIVPTGKTGLIIGKGGETIKSISQQSGARIELQRNPPPNADPNMKLFTIRGTPQQIDYARQLIEEKIGGPVNPLGPPVPHGPHGVPGPHGPPGPPGPGTPMGPYNPAPYNPGPPGPAPHGPPAPYAPQGWGNAYPHWQQQAPPDPAKAGTDPNSAAWAAYYAHYYQQQAQPPPAAPAGAPTTTQTNGQGDQQNPAPAGQVDYTKAWEEYYKKMGQAVPAPTGAPPGGQPDYSAAWAEYYRQQAAYYAQTSPQGMPQHPPAPQGQ [FUBP1]	0.527	57	56.4	0.0996	-0.104	-0.787
MTERFDCHHCNESLFGKKYILREESPYCVVCFETLFANTCEECGKPIGCDCKDLSYKDRHWHEACFHCSQCRNSLVDKPFAAKEDQLLCTDCYSNEYSSKCQECKKTIMPGTRKMEYKGSSWHETCFICHRCQQPIGTKSFIPKDNQNFCVPCYEKQHAMQCVQCKKPITTGGVTYREQPWHKECFVCTACRKQLSGQRFTARDDFAYCLNCFCDLYAKKCAGCTNPISGLGGTKYISFEERQWHNDCFNCKKCSLSLVGRGFLTERDDILCPDCGKDI [FHL2]	-0.304	52	51.9	-0.0906	-1.09	-1.97
MLCGRWRRCRRPPEEPPVAAQVAAQVAAPVALPSPPTPSDGGTKRPGLRALKKMGLTEDEDVRAMLRGSRLRKIRSRTWHKERLYRLQEDGLSVWFQRRIPRAPSQHIFFVQHIEAVREGHQSEGLRRFGGAFAPARCLTIAFKGRRKNLDLAAPTAEEAQRWVRGLTKLRARLDAMSQRERLDHWIHSYLHRADSNQDSKMSFKEIKSLLRMVNVDMNDMYAYLLFKECDHSNNDRLEGAEIEEFLRRLLKRPELEEIFHQYSGEDRVLSAPELLEFLEDQGEEGATLARAQQLIQTYELNETAKQHELMTLDGFMMYLLSPEGAALDNTHTCVFQDMNQPLAHYFISSSHNTYLTDSQIGGPSSTEAYVRAFAQGCRCVELDCWEGPGGEPVIYHGHTLTSKILFRDVVQAVRDHAFTLSPYPVILSLENHCGLEQQAAMARHLCTILGDMLVTQALDSPNPEELPSPEQLKGRVLVKGKKLPAARSEDGRALSDREEEEEDDEEEEEEVEAAAQRRLAKQISPELSALAVYCHATRLRTLHPAPNAPQPCQVSSLSERKAKKLIREAGNSFVRHNARQLTRVYPLGLRMNSANYSPQEMWNSGCQLVALNFQTPGYEMDLNAGRFLVNGQCGYVLKPACLRQPDSTFDPEYPGPPRTTLSIQVLTAQQLPKLNAEKPHSIVDPLVRIEIHGVPADCARQETDYVLNNGFNPRWGQTLQFQLRAPELALVRFVVEDYDATSPNDFVGQFTLPLSSLKQGYRHIHLLSKDGASLSPATLFIQIRIQRS [PLCD3]	-0.344	51.6	48.9	0.0889	0.427	0.0629
MAAVRGLRVSVKAEAPAGPALGLPSPEAESGVDRGEPEPMEVEEGELEIVPVRRSLKELIPDTSRRYENKAGSFITGIDVTSKEAIEKKEQRAKRFHFRSEVNLAQRNVALDRDMMKKAIPKVRLETIYICGVDEMSTQDVFSYFKEYPPAHIEWLDDTSCNVVWLDEMTATRALINMSSLPAQDKIRSRDASEDKSAEKRKKDKQEDSSDDDEAEEGEVEDENSSDVELDTLSQVEEESLLRNDLRPANKLAKGNRLFMRFATKDDKKELGAARRSQYYMKYGNPNYGGMKGILSNSWKRRYHSRRIQRDVIKKRALIGDDVGLTSYKHRHSGLVNVPEEPIEEEEEEEEEEEEEEEEDQDMDADDRVVVEYHEELPALKQPRERSASRRSSASSSDSDEMDYDLELKMISTPSPKKSMKMTMYADEVESQLKNIRNSMRADSVSSSNIKNRIGNKLPPEKFADVRHLLDEKRQHSRPRPPVSSTKSDIRQRLGKRPHSPEKAFSSNPVVRREPSSDVHSRLGVPRQDSKGLYADTREKKSGNLWTRLGSAPKTKEKNTKKVDHRAPGAEEDDSELQRAWGALIKEKEQSRQKKSRLDNLPSLQIEVSRESSSGSEAES [NCBP3]	-0.537	45.6	49.4	0.394	1.38	2.56
